Test results from the nanobody polyreactivity screen of Harvey et al. (2022).

Test: yeast display, Sf9 membrane polyspecificity reagent, FACS + sequencing; frameworks hold sequencing errors
How it was run: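 Sorting gates, low and high (top ~1%), were placed on anti-HA fluorescence to track expression and on streptavidin fluorescence to track reagent binding. A clone's polyreactivity label is taken from the gate it came out of. The reagent was 10% biotinylated, detergent-solubilized Sf9 membrane, applied for 1 hour at 4 °C to galactose-induced yeast display cells.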

| Sequence | polyreactivity (PSR sort gate) |
| --- | --- |
| QVQLVESGGGLVQAGGSLRLSCAASGGISYRYAMGWYRQAPGKERELVAAISGRGTSTYYADSVKGRFTISRDNAKNTVYLQMNSLKTEDTAVYYCNAQVGNFGYRSGGYDYWGQGTQVTVSS | high polyreactivity |
| QVQLVESGGGLVQAGGSLRLSCAASGGLFTAYTMGWYRQAPGKERELVAVISSGGGRTYYADSVKGRFTISRDNAKNSVYLQMNSRKPEDTAVYYCNARVYVSANKYDYWGQGTQVTVSS | high polyreactivity |
| QVQLVESGGGLVQAGGSLRLSCAASGGNFAEYVMGWYRQAPGKERELVAAIDWSGGSTYYADSVKGRFTISRDNAKNTVYLQMNSLKPEDTAVYYCNADGPLDRYEYWGQGTQVTVSS | low polyreactivity |
| QVQLVESGGGLVQAGGSLRLSCAASGGNFWIYTMGWYTQAPGKERELVASITRGGSTYADSVKGRFTISRDKAKNTVYLQMNSLKPEDTAVYYCNAEFRYPWFRWEYDHWGQGTQVTVSS | low polyreactivity |
| QVQLVESGGGLVQAGGSLRLSCAASGGNFYLYAMGWYIQAPGKEREFVAAISSSGGSTNYADSVKGRFTFSRDNAKNTVYLQMNSLKAEDTAVYYCAARWLAFLDLGKTYEYWGQGTHVTVSS | high polyreactivity |
| QVQLVESGGGLVQAGGSLRLSCAASGGSSPNYAMGWYRQAPGKEREFVAGISRSGGSTYYADSVKGRFTISRDNAKNTVYLQMNSLKPEDTAVYVCAAARSRPYDYWGQGTQVTVSS | high polyreactivity |
| QVQLVESGGGLVQAGGSLRLSCAASGGTFAFYAMGWYRQAPGKERELVAAITSGGRTYYADSVKGRFTISRDNAKNTVYLQMKRLKPEDTAVYYCNADWVDHYYVGYDYWGQGTQVTVSS | low polyreactivity |
| QVQLVESGGGLVQAGGSLRLSCAASGGTFAGYAMGWYRQAPGKERELVAAISRSGGSTYYADSVKGRFTISRDNAKNTVYLQMNSLKPEDTAVYYCIAASRTKFDYWGQGTQVTVSS | high polyreactivity |
| QVQLVESGGGLVQAGGSLRLSCAASGGTFDSYAMGWYRQAHGKERELVAAITRRTSSTYYADSVKGRFTISRDNAKNTVYLQMHSLKPEDTAVYYCNADSYYYDHRDFGYWGQGTLVTVSS | high polyreactivity |
| QVQLVESGGGLVQAGGSLRLSCAASGGTFDYYAMGWYRQAPGKERELVAAISTSGGRTYYADSVKGRFTISRDNAKNTVYLQMNSLTPEDTAVYYCAALSRRAKYDSFYYWGQGTQVTVSS | high polyreactivity |
| QVQLVESGGGLVQAGGSLRLSCAASGGTFERNAMGWYIQAPGKERELVAGMSKISGRTYYADSVKGRFTISRDNAKNTVYLQMNCLKPEDTAVYYCNKVSRSSYGYWGQGTQVTVSS | high polyreactivity |
| QVQLVESGGGLVQAGGSLRLSCAASGGTFFQYAMGWYRQAPGKERELVAAITWSSGSTYYADSVKGRFTISRDNAKNTVYLQMNSLKPEDTAVYYDDYYTYGDYWGQGTQVTVSS | low polyreactivity |
| QVQLVESGGGLVQAGGSLRLSCAASGGTFFTNAMGWYRQAPGKERELVAAISRGGSSTYYADSVKGRFTISRDNAKNTVYLQMTSLKPEDTAVYYCNKAYHRRDSEFGYWGQGTQVTVSS | high polyreactivity |
| QVQLVESGGGLVQAGGSLRLSCAASGGTFGGNAMGWYRQAPGKERELVAAITDIGGSTYYADSVKGRFTISRDNAKNTVYLQMNSLKPEDTAVYYCAKDNVEVVGQWSSDEYDYWGQGTQVTVSS | low polyreactivity |
| QVQLVESGGGLVQAGGSLRLSCAASGGTFGKNAMGWYRQAPGKERELVAAITWSGARTFYADSVKGRFTISRDNAKNTVYLQMNSLKPEDTAVYYCAKGGTRFTRYEYWGQGTQVTVSS | high polyreactivity |
| QVQLVESGGGLVQAGGSLRLSCAASGGTFGKNAMGWYRQAPGKERELVAAITWSGARTFYADSVKGRFTISRDNAKNTVYLQMNSLKPEDTAVYYCGKGGTRFTRYEYWGQGTQVTVSS | high polyreactivity |
| QVQLVESGGGLVQAGGSLRLSCAASGGTFGRYAMGWYRQAPGKERELVAAITYGGGSTYYADSVKGRFTISRDNAKNTVYLQMNSLKPEDTAVYYCNKYASLRYWGQGTQVTVSS | high polyreactivity |
